Where two headings read alike, the source gives them in different places.
T1: FcgRIIaR (human, UniProt P12318 34-217)
T1 construct: extracellular domain; also called FcγRIIa R type; FcγRIIa (R type)
T1 sequence (looked up): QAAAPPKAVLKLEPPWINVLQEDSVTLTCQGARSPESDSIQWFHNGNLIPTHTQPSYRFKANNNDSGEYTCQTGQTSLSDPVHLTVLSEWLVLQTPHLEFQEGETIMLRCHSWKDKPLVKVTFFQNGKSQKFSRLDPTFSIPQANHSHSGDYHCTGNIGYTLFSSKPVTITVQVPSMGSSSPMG

T2: FcgRIIaH (human, UniProt P12318 34-217)
T2 construct: extracellular domain; also called FcγRIIa H type
T2 sequence (looked up): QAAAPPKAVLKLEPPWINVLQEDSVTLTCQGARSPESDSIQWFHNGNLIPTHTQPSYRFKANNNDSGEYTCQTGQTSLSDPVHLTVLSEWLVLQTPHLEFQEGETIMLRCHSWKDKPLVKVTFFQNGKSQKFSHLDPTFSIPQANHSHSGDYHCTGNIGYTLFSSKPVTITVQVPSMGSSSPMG

T3: FcgRIIb (human, UniProt P31994 43-217)
T3 construct: extracellular domain; also called FcγRIIb
T3 sequence (looked up): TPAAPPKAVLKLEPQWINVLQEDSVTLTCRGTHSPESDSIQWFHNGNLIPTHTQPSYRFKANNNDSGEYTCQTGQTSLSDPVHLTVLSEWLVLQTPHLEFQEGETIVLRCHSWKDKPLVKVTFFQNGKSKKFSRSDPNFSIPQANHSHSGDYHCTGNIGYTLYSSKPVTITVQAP

T4: mouse FcγRI (mouse, UniProt P26151 25-297, limits assumed)
T4 construct: also called mFcγRI; mFc γ RI
T4 sequence (looked up): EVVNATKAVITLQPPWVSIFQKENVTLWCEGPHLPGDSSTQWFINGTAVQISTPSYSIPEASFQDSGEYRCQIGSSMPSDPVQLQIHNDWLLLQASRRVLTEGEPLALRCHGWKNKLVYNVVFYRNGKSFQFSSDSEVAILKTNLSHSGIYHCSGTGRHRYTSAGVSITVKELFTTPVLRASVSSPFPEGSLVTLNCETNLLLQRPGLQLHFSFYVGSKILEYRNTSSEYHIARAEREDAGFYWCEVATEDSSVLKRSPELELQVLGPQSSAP

T5: mouse FcγRIV (mouse, UniProt A0A0B4J1G0 21-203)
T5 construct: also called mFcγRIV; mFc γ RIV
T5 sequence: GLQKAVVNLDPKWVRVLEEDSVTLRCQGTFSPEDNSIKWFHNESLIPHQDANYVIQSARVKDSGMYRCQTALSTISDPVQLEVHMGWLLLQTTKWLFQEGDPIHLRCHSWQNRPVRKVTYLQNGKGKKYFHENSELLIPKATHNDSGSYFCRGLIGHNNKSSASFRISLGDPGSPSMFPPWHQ


Assays:
FcgRIIaR [1] = molecular target: T1, FcgRIIaR; assay: SPR (Biacore)
FcgRIIaH [2] = molecular target: T2, FcgRIIaH; assay: SPR (Biacore)
FcgRIa [3] = molecular target: T6, FcgRIa (human, UniProt P12314 16-292); assay: SPR (Biacore)
T6 construct: also called FcγRIa; FcγRI

FcgRIIIaV [4] = molecular target: T7, FcgRIIIaV (human, UniProt P08637 17-208); assay: SPR (Biacore)
T7 construct: extracellular domain; also called FcγRIIIa V type

FcgRIIb [5] = molecular target: T3, FcgRIIb; assay: SPR (Biacore)
FcgRIIaR [6] = molecular target: T1, FcgRIIaR; assay: SPR, amount bound per captured antibody
FcgRIIb [7] = molecular target: T3, FcgRIIb; assay: SPR, amount bound per captured antibody
FcgRIIaR [8] = molecular target: T1, FcgRIIaR; assay: SPR (Biacore); remark: listed apart in the source
FcgRIIaH [9] = molecular target: T2, FcgRIIaH; assay: SPR (Biacore); remark: listed apart in the source
FcgRIa [10] = molecular target: T6, FcgRIa; assay: SPR (Biacore); remark: listed apart in the source
FcgRIIIaV [11] = molecular target: T7, FcgRIIIaV; assay: SPR (Biacore); remark: listed apart in the source
FcgRIIb [12] = molecular target: T3, FcgRIIb; assay: SPR (Biacore); remark: listed apart in the source
mouse FcγRI = molecular target: T4, mouse FcγRI; assay: SPR (Biacore), method of Reference Example 2
Procedure: (§1) The binding activities of these antibodies to the mouse FcγRs were evaluated by the method of Reference Example 2.

mouse FcγRIV = molecular target: T5, mouse FcγRIV; assay: SPR (Biacore), method of Reference Example 2
Procedure: as §1

T6 sequence (P12314 16-292): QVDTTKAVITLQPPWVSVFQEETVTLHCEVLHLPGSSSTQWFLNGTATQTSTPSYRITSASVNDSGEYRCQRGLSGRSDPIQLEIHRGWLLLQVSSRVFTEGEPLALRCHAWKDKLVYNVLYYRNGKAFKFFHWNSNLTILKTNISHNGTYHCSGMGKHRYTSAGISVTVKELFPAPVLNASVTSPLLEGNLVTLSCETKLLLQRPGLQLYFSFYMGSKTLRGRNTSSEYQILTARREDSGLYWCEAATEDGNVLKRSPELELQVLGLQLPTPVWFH
T7 sequence (P08637 17-208 F176V): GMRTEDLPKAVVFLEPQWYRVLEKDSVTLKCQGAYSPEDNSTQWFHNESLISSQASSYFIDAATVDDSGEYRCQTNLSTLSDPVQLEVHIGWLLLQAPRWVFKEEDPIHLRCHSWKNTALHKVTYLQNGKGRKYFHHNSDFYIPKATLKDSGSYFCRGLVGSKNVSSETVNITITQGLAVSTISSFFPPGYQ

Binder | Relative FcgRIIaR-binding Activity (FcgRIIaR [8]) | Relative FcgRIIaH-binding Activity (FcgRIIaH [9]) | Relative FcgRIa-binding Activity (FcgRIa [10]) | Relative FcgRIIIaV-binding Activity (FcgRIIIaV [11]) | Relative FcgRIIb-binding Activity (FcgRIIb [12]) | further results
IL6R-P665/IL6R-L (antibody, human IgG1, kappa, also called IL6R-P665/1L6R-L) heavy: QVQLQESGPGLVKPSETLSLTCAVSGHSISHDHAWSWVRQPPGEGLEWIGFISYSGITNYNPSLQGRVTISRDNSKNTLYLQMNSLRAEDTAVYYCARSLARTTAMDYWGEGTLVTVSSASTKGPSVFPLAPSSKSTSGGTAALGCLVKDYFPEPVTVSWNSGALTSGVHTFPAVLQSSGLYSLSSVVTVPSSSLGTQTYICNVNHKPSNTKVDKKVEPKSCDKTHTCPPCPAPDLLGDDSVFLFPPKPKDTLMISRTPEVTCVVIDVAEEDGEVKFNWYVDGVEVHNAKTKPREEQDASTYRVVSVLTVLHQDWLNGKEYKCKVSNKALPRPIEKTISKAKGQPREPQVYTLPPSRDELTKNQVSLTCLVKGFYPSDIAVEWESNGQPENNYKTTPMVLDSDGSFFLYSKLTVDKSRWQQGNVFSCSVMHEALHNHYTQKSLSLSP light: not shown |  |  |  |  |  | Relative FcgRIIaR-binding Activity (FcgRIIaR [1]): 0.025 KD(G1d)/KD(variant); Relative FcgRIIaH-binding Activity (FcgRIIaH [2]): 0.002 KD(G1d)/KD(variant); Relative FcgRIa-binding Activity (FcgRIa [3]): 0.0002 KD(G1d)/KD(variant); Relative FcgRIIIaV-binding Activity (FcgRIIIaV [4]): 0.005 KD(G1d)/KD(variant); Relative FcgRIIb-binding Activity (FcgRIIb [5]): 1.6 KD(G1d)/KD(variant); Relative FcgRIIaR-binding Activity (FcgRIIaR [6]): 15 IL6R-G1d/IL6R-L=100; Relative FcgRIIb-binding Activity (FcgRIIb [7]): 121 IL6R-G1d/IL6R-L=100
IL6R-P702/IL6R-L (antibody, human IgG1, kappa) heavy: QVQLQESGPGLVKPSETLSLTCAVSGHSISHDHAWSWVRQPPGEGLEWIGFISYSGITNYNPSLQGRVTISRDNSKNTLYLQMNSLRAEDTAVYYCARSLARTTAMDYWGEGTLVTVSSASTKGPSVFPLAPSSKSTSGGTAALGCLVKDYFPEPVTVSWNSGALTSGVHTFPAVLQSSGLYSLSSVVTVPSSSLGTQTYICNVNHKPSNTKVDKKVEPKSCDKTHTCPPCPAPDLLGGDSVMLFPPKPKDTLMISRTPEVTCVVIDVREEDGEVKFNWYVDGVEVHNAKTKPREEQYNSTYRVVSVLTVLHQDWLNGKEYKCKVSNKALPAPIEKTISKAKGQPREPQVYTLPPSRDELTKNQVSLTCLVKGFYPSDIAVEWESNGQPENNYKTTPPVLDSDGSFFLYSKLTVDKSRWQQGNVFSCSVMHEALHNHYTQKSLSLSP light: not shown | 0.023 KD(G1d)/KD(variant) | 0.006 KD(G1d)/KD(variant) | 0.0006 KD(G1d)/KD(variant) | 0.008 KD(G1d)/KD(variant) | 1.27 KD(G1d)/KD(variant) | 
IL6R-P730/IL6R-L (antibody, human IgG1, kappa) heavy: QVQLQESGPGLVKPSETLSLTCAVSGHSISHDHAWSWVRQPPGEGLEWIGFISYSGITNYNPSLQGRVTISRDNSKNTLYLQMNSLRAEDTAVYYCARSLARTTAMDYWGEGTLVTVSSASTKGPSVFPLAPSSKSTSGGTAALGCLVKDYFPEPVTVSWNSGALTSGVHTFPAVLQSSGLYSLSSVVTVPSSSLGTQTYICNVNHKPSNTKVDKKVEPKSCDKTHTCPPCPAPDLLGQDSVFLFPPKPKDTLMISRTPEVTCVVIDVRPEDGEVKFNWYVDGVEVHNAKTKPREEQENSTYRVVSVLTVLHQDWLNGKEYKCKVSNKALPAPIEKTISKAKGQPREPQVYTLPPSRDELTKNQVSLTCLVKGFYPSDIAVEWESNGQPENNYKTTPPVLDSDGSFFLYSKLTVDKSRWQQGNVFSCSVMHEALHNHYTQKSLSLSP light: not shown | 0.013 KD(G1d)/KD(variant) | 0.003 KD(G1d)/KD(variant) | 0.0002 KD(G1d)/KD(variant) | 0.005 KD(G1d)/KD(variant) | 0.504 KD(G1d)/KD(variant) | 
IL6R-P699/IL6R-L (antibody, human IgG1, kappa, Printed H238P read as H268P) heavy: QVQLQESGPGLVKPSETLSLTCAVSGHSISHDHAWSWVRQPPGEGLEWIGFISYSGITNYNPSLQGRVTISRDNSKNTLYLQMNSLRAEDTAVYYCARSLARTTAMDYWGEGTLVTVSSASTKGPSVFPLAPSSKSTSGGTAALGCLVKDYFPEPVTVSWNSGALTSGVHTFPAVLQSSGLYSLSSVVTVPSSSLGTQTYICNVNHKPSNTKVDKKVEPKSCDKTHTCPPCPAPDLLGGDSVFLFPPKPKDTLMISRTPEVTCVVIDVRPEDGEVKFNWYVDGVEVHNAKTKPREEQYNSTYRVVSVLTVLHQDWLNGKEYKCKVSNKALPAPIEKTISKAKGQPREPQVYTLPPSRDELTKNQVSLTCLVKGFYPSDIAVEWESNGQPENNYKTTPPVLDSDGSFFLYSKLTVDKSRWQQGNVFSCSVMHEALHNHYTQKSLSLSP light: not shown | 0.022 KD(G1d)/KD(variant) | 0.004 KD(G1d)/KD(variant) | 0.0005 KD(G1d)/KD(variant) | 0.005 KD(G1d)/KD(variant) | 1.26 KD(G1d)/KD(variant) | 
IL6R-P712/IL6R-L (antibody, human IgG1, kappa) heavy: QVQLQESGPGLVKPSETLSLTCAVSGHSISHDHAWSWVRQPPGEGLEWIGFISYSGITNYNPSLQGRVTISRDNSKNTLYLQMNSLRAEDTAVYYCARSLARTTAMDYWGEGTLVTVSSASTKGPSVFPLAPSSKSTSGGTAALGCLVKDYFPEPVTVSWNSGALTSGVHTFPAVLQSSGLYSLSSVVTVPSSSLGTQTYICNVNHKPSNTKVDKKVEPKSCDKTHTCPPCPAPDLLGGDSVFLFPPKPKDTLMISRTPEVTCVVIDVRPEDGEVKFNWYVDGVEVHNAKTKPREEQENSTYRVVSVLTVLHQDWLNGKEYKCKVSNKALPAPIEKTISKAKGQPREPQVYTLPPSRDELTKNQVSLTCLVKGFYPSDIAVEWESNGQPENNYKTTPPVLDSDGSFFLYSKLTVDKSRWQQGNVFSCSVMHEALHNHYTQKSLSLSP light: not shown | 0.017 KD(G1d)/KD(variant) | 0.003 KD(G1d)/KD(variant) | 0.0005 KD(G1d)/KD(variant) | 0.004 KD(G1d)/KD(variant) | 1.52 KD(G1d)/KD(variant) | 
IL6R-P694/IL6R-L (antibody, human IgG1, kappa) heavy: QVQLQESGPGLVKPSETLSLTCAVSGHSISHDHAWSWVRQPPGEGLEWIGFISYSGITNYNPSLQGRVTISRDNSKNTLYLQMNSLRAEDTAVYYCARSLARTTAMDYWGEGTLVTVSSASTKGPSVFPLAPSSKSTSGGTAALGCLVKDYFPEPVTVSWNSGALTSGVHTFPAVLQSSGLYSLSSVVTVPSSSLGTQTYICNVNHKPSNTKVDKKVEPKSCDKTHTCPPCPAPDLLGGDSVFLFPPKPKDTLMISRTPEVTCVVIDVREEDGEVKFNWYVDGVEVHNAKTKPREEQENSTYRVVSVLTVLHQDWLNGKEYKCKVSNKALPAPIEKTISKAKGQPREPQVYTLPPSRDELTKNQVSLTCLVKGFYPSDIAVEWESNGQPENNYKTTPPVLDSDGSFFLYSKLTVDKSRWQQGNVFSCSVMHEALHNHYTQKSLSLSP light: not shown | 0.02 KD(G1d)/KD(variant) | 0.005 KD(G1d)/KD(variant) | 0.0008 KD(G1d)/KD(variant) | 0.007 KD(G1d)/KD(variant) | 1.83 KD(G1d)/KD(variant) | 
VH3/L (WT)-mIgG1-mF44 (antibody) heavy: QVQLQESGPGLVKPSETLSLTCAVSGHSISHDHAWSWVRQPPGEGLEWIGFISYSGITNYNPSLQGRVTISRDNSKNTLYLQMNSLRAEDTAVYYCARSLARTTAMDYWGEGTLVTVSSAKTTPPSVYPLAPGSAAQTNSMVTLGCLVKGYFPEPVTVTWNSGSLSSGVHTFPAVLQSDLYTLSSSVTVPSSTWPSETVTCNVAHPASSTKVDKKIVPRDCGCKPCICTVPEVSSVFIFPPKPKDVLTITLTPKVTCVVVDISKDDPEVQFSWFVDDVEVHTAQTQPREEQFNSTFRSVSELPIMHQDWLNGKEFKCRVNSADFPAPIEKTISKTKGRPKAPQVYTIPPPKEQMAKDKVSLTCMITDFFPEDITVEWQWNGQPAENYKNTQPIMDTDGSYFVYSKLNVQKSNWEAGNTFTCSVLHEGLHNHHTEKSLSHSPGK light: not shown |  |  |  |  |  | binding result (mouse FcγRI): no binding; binding result (mouse FcγRIV): no binding
